Assay results from paper doi:10.1101/2022.11.07.515412.
Several values for one entry are separate records, joined by “and”; a condition that tells them apart may be missing. Equal values may be shown once.

Assays:
[1] = target: vinculin D1 first subdomain (residues 1-257) (human) (UniProt P18206); assay: native gel or EMSA
[2] = target: vinculin D1D2 (residues 1-484) (human) (UniProt P18206); assay: native gel or EMSA
[3] = target: full-length human vinculin (HV) (human) (UniProt P18206); assay: solid-phase binding assay
[4] = target: vinculin D1D2 (residues 1-484) (human) (UniProt P18206); assay: SEC-MALS
[5] = target: vinculin D1 first subdomain (residues 1-257) (human) (UniProt P18206); assay: SEC-MALS
[6] = target: vinculin D1D4 (residues 1-834) (human) (UniProt P18206); assay: SEC-MALS
[7] = target: vinculin D1D2 (residues 1-484) (human) (UniProt P18206); assay: SEC-MALS; remark: listed apart in the source

| Substance | stoichiometry N [1] | stoichiometry N [2] | EC50 [3] | stoichiometry N [4] | stoichiometry N (D1D2:AVBS1-3 molar ratio) [2] | stoichiometry N ([2]; scale: AVBS1-3 per D1D2) | stoichiometry N (molar ratio, printed as AVBS1-3:D1) [5] | stoichiometry N [6] | stoichiometry N [7] |
| --- | --- | --- | --- | --- | --- | --- | --- | --- | --- |
| IpaA derivative containing VBS1-2 (AVBS1-2) (from UniProt P18010 1-633) (domain or fragment) | 1 D1:AVBS1-2 | 1 D1D2:AVBS1-2 | 3.7 nM | 1 D1D2:AVBS1-2 |  |  |  |  |  |
| IpaA derivative containing VBS1-3 (AVBS1-3) (from UniProt P18010 1-633) (domain or fragment) | 1 D1:AVBS1-3 | 1 D1D2:AVBS1-3 | 6.1 nM |  | 3 | 2 | 1 and 2 and 3 | 1 D1D4:AVBS1-3 |  |
| vinculin D1D2 (residues 1-484) (from UniProt P18206 1-484) (domain or fragment) |  |  |  | 2 |  |  |  |  | 2 and 3 |
| vinculin D1D4 (residues 1-834) (from UniProt P18206 1-834) (domain or fragment) |  |  |  |  |  |  |  | 2 and 3 |  |
